Experimental data taken from article PMC10511499.

B1: full-length yeast Pac1 with C-terminal FLAG-SNAPf [S. cerevisiae] / yeast Ndl1 coiled-coil domain (Ndl1^CC, residues 2-132) [S. cerevisiae] (parent)
chain 1: MTNWQQQLPLTDTQKNELDKSVLRYLNWNYKQTVRHEHAQDYESVRHAIVTLSGFLLQESVDRQEFISNNDTSNESMVDIDELLLPKKWNSIVRLQKKIIELEQNTETLVSQIKDLNTQVSELAQFKPTTSNGTSAHNVLKWIPRNLPSCLINVESSVTSVKLHPNLPIVFVATDHGKLYAFDLFNYTIPLASLQSHTKAITSMDVLFTNYTNSSKKNYLVIVTASKDLQIHVFKWVSEECKFQQIRSLLGHEHIVSAVKIWQKNNDVHIASCSRDQTVKIWDFHNGWSLKTFQPHSQWVRSIDVLGDYIISGSHDTTLRLTHWPSGNGLSVGTGHEFPIEKVKFIHFIEDSPEIRFRTPSTDRYKNWGMQYCVSASRDRTIKIWEIPLPTLMAHRAPIPNPTDSNFRCVLTLKGHLSWVRDISIRGQYLFSCADDKSVRCWDLNTGQCLHVWEKLHTGFVNCLDLDVDFDSNVTPRQMMVTGGLDCKSNVFMR
chain 2: VPNLDLETAIQIISSLETQLSELEGATKEYENDLEQVISKLKSDLLESQQQNKCNKKQITDLEIQVDELENENIQLRNKIETLQLESDRRLERNVLLEHELLDTKEALQKLRVSKEEATSGETRRNTRSLP
B2: LIS1, wild type, as used in mass photometry (construct not told) [human] / human Ndel1 coiled-coil domain (Ndel1^CC, residues 1-195) [human] (parent)
chain 1: MVLSQRQRDELNRAIADYLRSNGYEEAYSVFKKEAELDVNEELDKKYAGLLEKKWTSVIRLQKKVMELESKLNEAKEEFTSGGPLGQKRDPKEWIPRPPEKYALSGHRSPVTRVIFHPVFSVMVSASEDATIKVWDYETGDFERTLKGHTDSVQDISFDHSGKLLASCSADMTIKLWDFQGFECIRTMHGHDHNVSSVAIMPNGDHIVSASRDKTIKMWEVQTGYCVKTFTGHREWVRMVRPNQDGTLIASCSNDQTVRVWVVATKECKAELREHEHVVECISWAPESSYSSISEATGSETKKSGKPGPFLLSGSRDKTIKMWDVSTGMCLMTLVGHDNWVRGVLFHSGGKFILSCADDKTLRVWDYKNKRCMKTLNAHEHFVTSLDFHKTAPYVVTGSVDQTVKVWECR
chain 2: MDGEDIPDFSSLKEETAYWKELSLKYKQSFQEARDELVEFQEGSRELEAELEAQLVQAEQRNRDLQADNQRLKYEVEALKEKLEHQYAQSYKQVSVLEDDLSQTRAIKEQLHKYVRELEQANDDLERAKRATIVSLEDFEQRLNQAIERNAFLESELDEKESLLVSVQRLKDEARDLRQELAVRERQQEVTRKSA

Variants of: B1
Experiment: mass photometry
Conditions: with yeast Ndl1 coiled-coil domain (Ndl1^CC, residues 2-132) [S. cerevisiae]; Proteins mixed at a 1:1 molar ratio

Row | Variant | screen value
1 | chain 1 MTNWQQQLPLTDTQKNELDKSVLRYLNWNYKQTVRHEHAQDYESVRHAIVTLSGFLLQESVDRQEFISNNDTSNESMVDIDELLLPKKWNSIVRLQKKIIELEQNTETLVSQIKDLNTQVSELAQFKPTTSNGTSAHNVLKWIPRNLPSCLINVESSVTSVKLHPNLPIVFVATDHGKLYAFDLFNYTIPLASLQSHTKAITSMDVLFTNYTNSSKKNYLVIVTASKDLQIHVFKWVSEECKFQQIRSLLGHEHIVSAVKIWQKNNDVHIASCSADQTVKIWDFHNGWSLKTFQPHSQWVASIDVLGDYIISGSHDTTLRLTHWPSGNGLSVGTGHEFPIEKVKFIHFIEDSPEIRFRTPSTDRYKNWGMQYCVSASADRTIKIWEIPLPTLMAHRAPIPNPTDSNFRCVLTLKGHLSAVRDISIRGQYLFSCADDASVRCWDLNTGQCLHVWEKLHTGFVNCLDLDVDFDSNVTPRQMMVTGGLDCKSNVFMR [chain 1 R275A R301A R378A W419A K437A] | 0%

Variants of: B2
Experiment: mass photometry
Conditions: with human Ndel1 coiled-coil domain (Ndel1^CC, residues 1-195) [human]; Proteins mixed at a 1:1 molar ratio

Row | Variant | screen value
2 | chain 1 MVLSQRQRDELNRAIADYLRSNGYEEAYSVFKKEAELDVNEELDKKYAGLLEKKWTSVIRLQKKVMELESKLNEAKEEFTSGGPLGQKRDPKEWIPRPPEKYALSGHRSPVTRVIFHPVFSVMVSASEDATIKVWDYETGDFERTLKGHTDSVQDISFDHSGKLLASCSADMTIKLWDFQGFECIRTMHGHDHNVSSVAIMPNGDHIVSASRDKTIKMWEVQTGYCVKTFTGHREWVRMVRPNQDGTLIASCSNDQTVRVWVVATKECKAELREHEHVVECISWAPESSYSSISEATGSETKKSGKPGPFLLSGSADKTIKMWDVSTGMCLMTLVGHDNWVRGVLFHSGGKFILSCADDKTLRVWDYKNKRCMKTLNAHEHFVTSLDFHKTAPYVVTGSVDQTVKVWECR [chain 1 R316A] | 5%
3 | chain 1 MVLSQRQRDELNRAIADYLRSNGYEEAYSVFKKEAELDVNEELDKKYAGLLEKKWTSVIRLQKKVMELESKLNEAKEEFTSGGPLGQKRDPKEWIPRPPEKYALSGHRSPVTRVIFHPVFSVMVSASEDATIKVWDYETGDFERTLKGHTDSVQDISFDHSGKLLASCSADMTIKLWDFQGFECIRTMHGHDHNVSSVAIMPNGDHIVSASRDKTIKMWEVQTGYCVKTFTGHREWVRMVRPNQDGTLIASCSNDQTVRVWVVATKECKAELREHEHVVECISWAPESSYSSISEATGSETKKSGKPGPFLLSGSRDKTIKMWDVSTGMCLMTLVGHDNAVRGVLFHSGGKFILSCADDKTLRVWDYKNKRCMKTLNAHEHFVTSLDFHKTAPYVVTGSVDQTVKVWECR [chain 1 W340A] | 0%
